The text below walks through data of patent publication US11389568B2, “Tyrosine peptide cross-linked biocompatible hydrogel and method of production” (SEOUL NATIONAL UNIVERSITY R&DB FOUNDATION, priority 2016, dated 2022).

Ends that are not written are not given here.

A short description of data set [1]: Solubility of the peptide in hydrogel preparation. It is filed as physicochemical.
Data set [2] can be described thus: Swelling test of lyophilized hydrogels in distilled water. It is filed as physicochemical. As to conditions: distilled water at 25° C. On the procedure:
Swelling and degradation tests on the hydrogels were conducted by the following procedures. First, HA hydrogels were photocrosslinked with different peptide sequences (YYACAYY (SEQ ID: 4), di-YYACAYY (SEQ ID: 5), YYAYY (SEQ ID: 7), YYCYY (SEQ ID; 8), and YYAHAYY (SEQ ID: 6), 0.1 mM each). Swelling experiments were performed by measuring the increase in weight of the lyophilized hydrogels. Lyophilized hydrogels were placed in 1 mL distilled water at 25° C. The swelling ratio (S %) of hydrogels in distilled water was calculated using S %=[(Wt−W0]/W0)]100, where Wt is the weight of the swollen hydrogel at time t, and W0 is the weight of the dry gel at time 0. Degradation tests were performed by measuring the weights of hydrogels in PBS containing 0.01 mg/mL hyaluronidase at different time points.

Data set [3] is described as follows: Storage modulus (G′) by rheometer. The format is physicochemical. To be noted: for storage modulus (G′), comparison in words: at 30 rad/s. How it is done: The crosslinking time and storage modulus (G′) were analyzed using a rheometer. Hydrogel samples with 20 mm diameter and 5 mm thickness were prepared. The crosslinking time was measured over time at an oscillation frequency of 1 Hz and a stress sweep of 10 Pa. The storage modulus was measured at an oscillation frequency of 1 Hz and a stress sweep of 1-100 Pa. All measurements were performed in triplicate and averaged.
Specifically, the storage modulus G′ was obtained by oscillatory shear measurements at room temperature using a constant stress rheometer (Discovery Hybrid Rheometer-3 from TA Instruments, USA). For the measurements, hydrogel samples with a defined shape of 20 mm diameter and 5 mm thickness were prepared. The cured hydrogel was placed on a lower rheometer stage, and an upper rheometer fixture (diameter 20 mm) was lowered until it made contact with the top surface of the sample. The value of G′ was then measured at oscillation frequency 1 Hz in a stress sweep test of 1-100 Pa. This stress sweep was performed in order to determine the limit of the linear viscoelastic range. All the G′ measurements were obtained in triplicate. Error bars in figures represent the standard deviation from the mean value (see FIGS. 7 and 9).
Specifically, it is well known that the mechanical properties of hydrogels are closely related to the crosslinking density. The storage modulus (G′) measured by rheological analysis is a reliable value representing the rigidity of the subjected hydrogel. The G′ of HA-Ty hydrogel without any peptide addition was 156.6 Pa at a strain of 1% at 30 rad/s (see FIG. 10).

For a further data set, the system named is fibroblasts. As to the kind of experiment: Cytotoxicity test by MTT assay. The format is cell-based. As to conditions: riboflavin 0.1 μM-10 mM, YC7 0.1 μM-1 mM, 24 hr at 37° C. In general terms: Tetrazolium dyes change colour on reduction, which living cells bring about.

Description for fibroblasts: To investigate the biocompatibility of the hydrogels, fibroblasts were used in a cytotoxicity test. Fibroblasts were seeded with the density of 4×10^4/well in 24 well plates. […] Finally, cell toxicity was evaluated by MTT assay. Fibroblasts were grown with the density of 1×10^5/well in 12 well dishes to test their proliferation in different hydrogels. The grown cells area was scratched using pipette tips to create a wound-like environment and the hydrogels were added to 12 transwells, which were then placed in the dishes where cells had been grown. The proliferation effect of cells was evaluated depending on the degree of cell filling in the scratches.

For “di-YYACAYY (YYACAYYYYACAYY; cysteine pairing not given here; also: dimer of YYACAYY) [DYC7, tyrosine-based peptide; the code also labels the HA-Ty hydrogel photocrosslinked with it]”, the solubility entry in data set [1] is reported as “partial insolubility”. Further, the “swelling ratio, comparison in words” value in data set [2] is reported as “slightly higher than that of YC7”. Besides, the “storage modulus (G′), comparison in words” value (shortened to “storage modulus … in words”) in data set [3] is given as “highest G′”. Further, the “storage modulus (G′)” value in data set [3] (strain of 1% at 30 rad/s, peptide 0.1 mM) turned out to be 297.6 Pa.

Regarding “YYCYY [YC5, tyrosine-based peptide; the code also labels the HA-Ty hydrogel photocrosslinked with it]”, in data set [3], the “storage modulus … in words” value is recorded as “higher than that of YH7”.

Take “YYAYY [YA5, tyrosine-based peptide; the code also labels the HA-Ty hydrogel photocrosslinked with it]”: the “storage modulus … in words” value in data set [3] is reported as “higher than that of YH7”.

Regarding “YYAHAYY [YH7, tyrosine-based peptide; the code also labels the HA-Ty hydrogel photocrosslinked with it]”, in data set [3], the “storage modulus … in words” value was “almost the same G′ as HA-Ty”.

Regarding YYACAYY [YC7, YYACAYY], the cytotoxicity result with fibroblasts is reported as “no cytotoxicity”.
